According to paper PMC8123688, “In Vivo Imaging of Thyroid Cancer with ^99mTc-TR1401 and ^99mTc-TR1402: A Comparison Study in Dogs” (Journal of Clinical Medicine, 2021):

Biological target: T1, TSH receptor (TSHR) on human ML-1 cells (human (endogenous in ML-1), UniProt P16473 21-764)
T1 construct: thyrotropin receptor (TSHR) expressed on the TSHR-positive human thyroid cancer cell line ML-1; also called TSH receptors; source: endogenous, on human ML-1 cells
Assay: radioligand binding; real-time kinetic binding assay with LigandTracer; 10^6 ML-1 cells seeded in a tilted Petri dish; 2 mL of 30 nM radiolabeled ligand in culture medium for 1 h, then medium without ligand to follow release; Kd from binding/release curve (GraphPad Prism)
Conditions: one partner purified

T1 sequence (P16473 21-764): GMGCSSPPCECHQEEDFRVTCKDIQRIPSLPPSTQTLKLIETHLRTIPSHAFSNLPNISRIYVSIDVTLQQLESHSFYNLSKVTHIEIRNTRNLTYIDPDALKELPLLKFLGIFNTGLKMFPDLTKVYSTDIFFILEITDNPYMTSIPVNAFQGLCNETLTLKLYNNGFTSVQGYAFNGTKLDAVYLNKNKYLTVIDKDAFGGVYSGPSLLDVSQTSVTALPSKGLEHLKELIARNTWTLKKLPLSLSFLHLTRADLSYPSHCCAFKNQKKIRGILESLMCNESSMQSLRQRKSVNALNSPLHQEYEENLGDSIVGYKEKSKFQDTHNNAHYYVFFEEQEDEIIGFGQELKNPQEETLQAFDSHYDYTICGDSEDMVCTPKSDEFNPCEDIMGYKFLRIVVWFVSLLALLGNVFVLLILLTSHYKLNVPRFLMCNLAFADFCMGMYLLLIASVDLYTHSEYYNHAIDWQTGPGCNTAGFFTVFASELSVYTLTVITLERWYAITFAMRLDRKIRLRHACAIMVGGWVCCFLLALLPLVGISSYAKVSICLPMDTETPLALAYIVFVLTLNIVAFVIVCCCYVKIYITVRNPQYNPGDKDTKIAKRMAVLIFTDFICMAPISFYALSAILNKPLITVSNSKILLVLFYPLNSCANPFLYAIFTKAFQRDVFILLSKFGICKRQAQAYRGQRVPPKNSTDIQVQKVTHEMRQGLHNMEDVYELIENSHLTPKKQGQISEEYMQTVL

- Kd: 8.4 nM
B1: 99mTc-Thyrogen, radiolabeled recombinant human TSH (Thyrogen) (ligand)
chain 1: not shown
chain 2: FCIPTEYTMHIERRECAYCLTINTTICAGYCMTRDINGKLFLPKYALSQDVCTYRDFIYRTVEIPGCPLHVAPYFSYPVALSCKCGKCNTDYSDCIHEAIKTNYCTKPQKSY
modifications: technetium-99m label (sites and chain not stated) | technetium-99m label (sites and chain not stated)
notes: glycoprotein hormones alpha chain (alpha subunit of TSH), human; recombinant human TSH (Thyrogen), so named in the abstract; thyrotropin (TSH) beta subunit, human; Thyrogen is a drug product; also called rhTSH; radiolabeled human recombinant TSH
